Data reported in patent publication US20230303983A1.

Key:
[1] = biological target: AAV2 capsid (AAV particles of serotype AAV2) (UniProt P03135); assay: static binding assay on AAVX resin, qPCR of vector genomes
Anc80 capsid = assay: as above
PHP.B capsid = assay: as above
AAV9 capsid [2] = assay: as above
AAV4 capsid = assay: as above
AAV7m8 capsid = assay: as above
AAV8 capsid = assay: as above
rh32.33 capsid = assay: as above
AAV7 capsid = assay: as above
rh10 capsid = assay: as above
AAV6.2 capsid = assay: as above
AAV5 capsid = assay: as above
AAV2_HSPG capsid = assay: as above
AAV1 capsid = assay: AAVX affinity HPLC, five consecutive small-scale preps on the same resin, qPCR of fractions
PHP.eB capsid = assay: AAVX affinity HPLC at room temperature (24 C), qPCR of flow-through
AAV9 capsid [3] = assay: as above

UniProt P03135, sequence (P03135 whole entry): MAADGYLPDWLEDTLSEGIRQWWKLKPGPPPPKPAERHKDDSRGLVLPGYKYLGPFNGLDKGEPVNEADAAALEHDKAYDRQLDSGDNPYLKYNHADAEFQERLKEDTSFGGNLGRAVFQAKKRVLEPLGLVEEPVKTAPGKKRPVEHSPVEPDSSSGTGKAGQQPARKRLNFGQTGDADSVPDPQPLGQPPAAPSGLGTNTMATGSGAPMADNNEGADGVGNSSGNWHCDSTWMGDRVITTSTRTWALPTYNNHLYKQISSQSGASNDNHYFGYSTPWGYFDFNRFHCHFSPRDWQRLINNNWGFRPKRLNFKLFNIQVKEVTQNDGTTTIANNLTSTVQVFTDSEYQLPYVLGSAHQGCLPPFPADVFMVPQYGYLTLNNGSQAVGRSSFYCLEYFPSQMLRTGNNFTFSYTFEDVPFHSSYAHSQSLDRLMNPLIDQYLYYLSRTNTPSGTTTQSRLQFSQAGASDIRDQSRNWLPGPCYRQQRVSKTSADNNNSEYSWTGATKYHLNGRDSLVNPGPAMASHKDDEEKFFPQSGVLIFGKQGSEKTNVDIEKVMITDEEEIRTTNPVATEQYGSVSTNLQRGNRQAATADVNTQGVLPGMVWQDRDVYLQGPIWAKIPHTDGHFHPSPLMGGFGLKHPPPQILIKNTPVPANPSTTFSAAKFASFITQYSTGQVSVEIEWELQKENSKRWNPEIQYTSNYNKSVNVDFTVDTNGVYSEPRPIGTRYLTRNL

Substance “POROS CaptureSelect AAVX resin ligand (camelid heavy-chain-only single-domain antibody fragment linked to poly[styrene divinylbenzene] beads) (VHH)” has a recovery (percent vector genomes of input) [1] of over 95%, a recovery (percent vector genomes of input) (Anc80 capsid) of 80% and a recovery (percent vector genomes of input) (PHP.B capsid) of over 95%. For the same substance, the recovery (percent vector genomes of input) (AAV9 capsid [2]) was over 95%, the recovery (percent vector genomes of input) (AAV4 capsid) was over 95% and the recovery (percent vector genomes of input) (AAV7m8 capsid) was over 95%. It also gave a recovery (percent vector genomes of input) (AAV8 capsid) of over 95%, a recovery (percent vector genomes of input) (rh32.33 capsid) of over 95% and a recovery (percent vector genomes of input) (AAV7 capsid) of over 95%. For the same substance, the recovery (percent vector genomes of input) (rh10 capsid) was over 95%, the recovery (percent vector genomes of input) (AAV6.2 capsid) was over 95% and the recovery (percent vector genomes of input) (AAV5 capsid) was over 95%. It also gave a recovery (percent vector genomes of input) (AAV2_HSPG capsid) of over 95%, a percent of input virus in flow-through (AAV1 capsid) of under 2% and a fraction of input AAV in the flow-through (PHP.eB capsid) of under 5%. For the same substance, the fraction of input AAV in the flow-through (AAV9 capsid [3]) was under 5%.
